Laboratory results: patent US20040018971A1 (published 2004)

B1: HER2/neu peptide AIKVLRENTSPKANK (position 751) (peptide)
peptide: AIKVLRENTSPKANK
notes: also called Her2/neu.751
B2: HER2/neu peptide DLTLGLEPSEEEAPR (position 1058) (peptide)
peptide: DLTLGLEPSEEEAPR
notes: also called Her2/neu.1058
B3: HER2/neu peptide DNLYYWDQDPPERGA (position 1218) (peptide)
peptide: DNLYYWDQDPPERGA
notes: also called Her2/neu.1218
B4: HER2/neu peptide DTILWKDIFHKNNQL (position 165) (peptide)
peptide: DTILWKDIFHKNNQL
notes: also called Her2/neu.165
B5: HER2/neu peptide, position 291, 11 amino acids (peptide)
peptide: FGASCVTACPY
B6: HER2/neu peptide, position 1213, 9 amino acids (peptide)
peptide: FSPAFDNLY
B7: HER2/neu peptide, position 292, 10 amino acids (peptide)
peptide: GASCVTACPY
B8: HER2/neu peptide, position 727, 9 amino acids (peptide)
peptide: GSGAFGTVY
B9: HER2/neu peptide, position 901, 8 amino acids (peptide)
peptide: HQSDVWSY
B10: HER2/neu peptide, position 333, 11 amino acids (peptide)
peptide: KCSKPCARVCY
B11: HER2/neu peptide, position 403, 9 amino acids (peptide)
peptide: LEEITGYLY
B12: HER2/neu peptide, position 726, 10 amino acids (peptide)
peptide: LGSGAFGTVY
B13: HER2/neu peptide, position 915, 9 amino acids (peptide)
peptide: LMTFGAKPY
B14: HER2/neu peptide, position 74, 10 amino acids (peptide)
peptide: LQDIQEVQGY
B15: HER2/neu peptide, position 1014, 10 amino acids (peptide)
peptide: MGDLVDAEEY
B16: HER2/neu peptide, position 916, 8 amino acids (peptide)
peptide: MTFGAKPY
B17: HER2/neu peptide, position 764, 9 amino acids (peptide)
peptide: NKEILDEAY
B18: HER2/neu peptide, position 601, 10 amino acids (peptide)
peptide: PSGVKPDLSY
B19: HER2/neu peptide, position 1241, 8 amino acids (peptide)
peptide: PTAENPEY
B20: HER2/neu peptide, position 1102, 11 amino acids (peptide)
peptide: PTHDPSPLQRY
notes: H is used here
B21: HER2/neu peptide, position 828, 8 amino acids (peptide)
peptide: QIAKGMSY
B22: HER2/neu peptide, position 728, 8 amino acids (peptide)
peptide: SGAFGTVY
B23: HER2/neu peptide, position 281, 9 amino acids (peptide)
peptide: SMPNPEGRY
B24: Her2/neu.133 (10-mer) (peptide)
peptide: SPGGLRELQL
B25: Her2/neu.133 (8-mer) (peptide)
peptide: SPGGLREL
B26: Her2/neu.336 (peptide)
peptide: KPCARVCYGL
notes: native HER2/neu peptide from position 336
B27: Her2/neu.642 (peptide)
peptide: CPAEQRASPL
notes: native HER2/neu peptide from position 642

What follows are binders tested against T1, HLA-DR3 (DRB1*0301) (human) (assay: competition binding assay, purified HLA, 125I-labelled probe peptide, gel filtration).
T1 construct: purified HLA class II molecule

First: B1
Second: B2
The relative binding ratio of the first is higher: 0.0075 ratio to standard peptide for the first, -0.0025 ratio to standard peptide for the second.

First: B3
Second: B4
The relative binding ratio of the first is higher: -0.0025 ratio to standard peptide for the first, -0.0027 ratio to standard peptide for the second.

Each binder was assayed against T2, HLA-A*0101 (human) (assay: competition with 125I-labelled probe peptide for purified HLA-A*0101, gel filtration; relative to standard peptide).
T2 construct: also called HLA-A1

Compared with B5, B6 is higher in “relative binding ratio (IC50 of standard peptide / IC50 of test peptide)” value: 0.01 relative binding ratio for the first, 0.043 relative binding ratio for the second.

Compared with B7, B8 is lower in “relative binding ratio (IC50 of standard peptide / IC50 of test peptide)” value: 0.0012 relative binding ratio for the first, 0.0011 relative binding ratio for the second.

First: B9
Second: B10
The “relative binding ratio (IC50 of standard peptide / IC50 of test peptide)” value of the first is lower: -0.0021 relative binding ratio for the first, -0.0017 relative binding ratio for the second.

First: B11
Second: B12
The “relative binding ratio (IC50 of standard peptide / IC50 of test peptide)” value of the first is higher: 0.0057 relative binding ratio for the first, 0.001 relative binding ratio for the second.

Compared with B13, B14 is higher in “relative binding ratio (IC50 of standard peptide / IC50 of test peptide)” value: 0.0011 relative binding ratio for the first, 0.0015 relative binding ratio for the second.

Compared with B15, B16 is lower in “relative binding ratio (IC50 of standard peptide / IC50 of test peptide)” value: 0.012 relative binding ratio for the first, -0.0021 relative binding ratio for the second.

First: B17
Second: B18
The “relative binding ratio (IC50 of standard peptide / IC50 of test peptide)” value of the first is higher: 0.0017 relative binding ratio for the first, 0.001 relative binding ratio for the second.

First: B19
Second: B20
The “relative binding ratio (IC50 of standard peptide / IC50 of test peptide)” value of the first is lower: 0.003 relative binding ratio for the first, 0.016 relative binding ratio for the second.

B21 and B22 are the same in “relative binding ratio (IC50 of standard peptide / IC50 of test peptide)” value: -0.0021 relative binding ratio for the first, -0.0021 relative binding ratio for the second.

B23 was tested, and the “relative binding ratio (IC50 of standard peptide / IC50 of test peptide)” value was 0.0028 relative binding ratio.

These binders were tested against HLA-B*0702 (human) (assay: competition with 125I probe peptide, purified HLA).

B24 and B25 are within 1.5-fold of each other in IC50: 95 nM for the first, 100 nM for the second.

First: B26
Second: B27
The IC50 of the first is 4-fold higher: 149 nM for the first, 37 nM for the second.
